Reference: PMC5737488
pKd: −log10 of the molar value. Values joined by “and” are separate entries in the source; they are usually repeats but may differ in a detail not shown here. Identical values can stand only once.

Tests used:
[1] = molecular target: vacant E. coli 70S ribosome (lacking bound mRNA and tRNAs) (E. coli) (UniProt P0AG67); test: co-sedimentation
[2] = molecular target: E. coli RNA polymerase core enzyme (α2ββ′ω) (E. coli) (UniProt P0A7Z4); test: co-sedimentation

Row | pKd [1] | percent bound to the ribosome [1] [%] | percent of RNA polymerase co-migrating with ribosomes [1] [%] | stoichiometry N (RNA polymerase per ribosome) [1] | KD (fit assuming only monomeric holoenzyme) [1] [nM] | stoichiometry N (ribosome per RNA polymerase) [2] | Substance
1 | 6.03 | 90 | 80 | 2 and 1 | – | – | E. coli RNA polymerase core enzyme (α2ββ′ω) (from UniProt P0A7Z4;P0A8V2;P0A8T7;P0A800) (complex)
2 | 5.85 | 31 | – | – | 1200 | – | E. coli RNA polymerase holoenzyme (core enzyme with bound sigma factor σ70) (from UniProt P0A7Z4;P0A8V2;P0A8T7;P0A800;P00579) (complex)
3 | – | 15 | – | – | – | – | transcription elongation complex (core RNA polymerase with a bound DNA:RNA scaffold) (from UniProt P0A7Z4;P0A8V2;P0A8T7;P0A800)
4 | – | – | – | – | – | 1 | vacant E. coli 70S ribosome (lacking bound mRNA and tRNAs) (from UniProt P0AG67;P0A7V0;P02358;P02359;P0A7X3;P0A7R9;P0A7L0;P0A7R1;P0A7K2;P0A7K6) (complex)
